Literature values as cited in patent US20040241754A1, “Modulating neuronal plasticity” (The Salk Institute for Biological Studies, priority 2003, published 2004).

B1: ephrin-B2: a 38-42 kDa, 333 amino acid glycoprotein; ephrin ligand (protein, UniProt P52799 1-333, looked up)
chain: MAVRRDSVWKYCWGVLMVLCRTAISKSIVLEPIYWNSSNSKFLPGQGLVLYPQIGDKLDIICPKVDSKTVGQYEYYKVYMVDKDQADRCTIKKENTPLLNCAKPDQDIKFTIKFQEFSPNLWGLEFQKNKDYYIISTSNGSLEGLDNQEGGVCQTRAMKILMKVGQDASSAGSTRNKDPTRRPELEAGTNGRSSTTSPFVKPNPGSSTDGNSAGHSGNNILGSEVALFAGIASGCIIFIVIIITLVVLLLKYRRRHRKHSPQHTTTLSLSTLATPKRSGNNNGSEPSDIIIPLRTADSVFCPHYEKVSGDYGHPVYIVQEMPPQSPANIYYKV
modifications: full-length
notes: a 38-42 kDa, 333 amino acid glycoprotein; ephrin ligand
B2: ephrin-A1: a 25 kDa, 205 amino acid glycoprotein; ephrin ligand (protein, UniProt P20827 1-205, looked up)
chain: MEFLWAPLLGLCCSLAAADRHTVFWNSSNPKFRNEDYTIHVQLNDYVDIICPHYEDHSVADAAMEQYILYLVEHEEYQLCQPQSKDQVRWQCNRPSAKHGPEKLSEKFQRFTPFTLGKEFKEGHSYYYISKPIHQHEDRCLRLKVTVSGKITHSPQAHDNPQEKRLAADDPEVRVLHSIGHSAAPRLFPLAWTVLLLPLLLLQTP
modifications: full-length
notes: a 25 kDa, 205 amino acid glycoprotein; ephrin ligand

How the values were obtained:
EphB4 = target: T1, EphB4 (Homo sapiens, UniProt P54760); details: read-out: Kd for binding to EphB4; cited from earlier work
T1 sequence (P54760 16-987): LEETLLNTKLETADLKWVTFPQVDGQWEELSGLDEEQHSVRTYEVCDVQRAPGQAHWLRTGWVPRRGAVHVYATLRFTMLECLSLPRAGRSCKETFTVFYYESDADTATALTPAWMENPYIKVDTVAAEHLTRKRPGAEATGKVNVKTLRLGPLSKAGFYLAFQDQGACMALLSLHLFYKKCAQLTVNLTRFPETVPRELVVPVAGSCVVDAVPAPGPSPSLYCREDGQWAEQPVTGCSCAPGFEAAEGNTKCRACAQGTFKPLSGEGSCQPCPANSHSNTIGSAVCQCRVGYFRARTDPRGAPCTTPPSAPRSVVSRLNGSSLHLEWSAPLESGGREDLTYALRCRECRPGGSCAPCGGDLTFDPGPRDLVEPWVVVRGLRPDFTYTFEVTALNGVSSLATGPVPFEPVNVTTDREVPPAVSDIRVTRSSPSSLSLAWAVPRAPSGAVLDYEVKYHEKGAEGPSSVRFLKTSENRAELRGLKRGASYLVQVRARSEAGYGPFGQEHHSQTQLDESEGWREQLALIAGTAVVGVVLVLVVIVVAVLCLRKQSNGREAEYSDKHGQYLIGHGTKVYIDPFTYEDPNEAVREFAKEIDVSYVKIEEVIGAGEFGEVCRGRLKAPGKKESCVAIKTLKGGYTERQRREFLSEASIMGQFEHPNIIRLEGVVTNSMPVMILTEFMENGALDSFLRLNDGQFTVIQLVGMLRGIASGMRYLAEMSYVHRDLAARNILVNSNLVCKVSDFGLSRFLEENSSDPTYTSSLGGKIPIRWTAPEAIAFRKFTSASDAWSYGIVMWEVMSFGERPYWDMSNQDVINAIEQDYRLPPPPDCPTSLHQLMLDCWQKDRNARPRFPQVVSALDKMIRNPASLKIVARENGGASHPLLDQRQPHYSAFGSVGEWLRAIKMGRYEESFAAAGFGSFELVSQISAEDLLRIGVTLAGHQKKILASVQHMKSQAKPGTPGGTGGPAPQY

EphA2 = EphA2 (Homo sapiens, UniProt P29317); details: read-out: Kd for binding to EphA2; cited from earlier work
Chain of EphA2 (P29317 24-976): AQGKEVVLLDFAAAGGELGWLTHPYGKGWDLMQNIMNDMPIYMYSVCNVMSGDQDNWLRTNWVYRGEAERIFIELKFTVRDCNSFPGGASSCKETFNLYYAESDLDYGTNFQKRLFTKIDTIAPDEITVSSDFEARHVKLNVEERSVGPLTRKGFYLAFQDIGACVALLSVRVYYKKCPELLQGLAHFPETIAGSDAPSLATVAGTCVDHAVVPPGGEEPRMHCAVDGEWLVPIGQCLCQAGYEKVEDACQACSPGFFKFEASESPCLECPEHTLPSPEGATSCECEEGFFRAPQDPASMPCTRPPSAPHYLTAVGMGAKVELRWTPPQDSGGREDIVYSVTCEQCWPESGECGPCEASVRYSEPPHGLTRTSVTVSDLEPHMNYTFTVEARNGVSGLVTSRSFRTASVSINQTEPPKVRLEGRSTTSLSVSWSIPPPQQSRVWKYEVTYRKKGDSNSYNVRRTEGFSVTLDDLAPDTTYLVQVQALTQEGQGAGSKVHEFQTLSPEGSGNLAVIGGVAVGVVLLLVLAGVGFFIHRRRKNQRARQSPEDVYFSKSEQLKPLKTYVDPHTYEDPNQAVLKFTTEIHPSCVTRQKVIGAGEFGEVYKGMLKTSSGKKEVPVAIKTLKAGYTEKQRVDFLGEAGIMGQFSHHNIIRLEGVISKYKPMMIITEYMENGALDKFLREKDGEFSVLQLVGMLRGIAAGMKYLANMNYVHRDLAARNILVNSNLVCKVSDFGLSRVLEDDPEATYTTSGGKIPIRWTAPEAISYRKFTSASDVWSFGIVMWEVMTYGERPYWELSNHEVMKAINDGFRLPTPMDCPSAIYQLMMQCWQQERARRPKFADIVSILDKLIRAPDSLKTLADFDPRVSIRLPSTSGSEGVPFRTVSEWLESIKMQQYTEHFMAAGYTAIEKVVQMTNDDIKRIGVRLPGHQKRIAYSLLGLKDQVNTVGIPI

Molecule | Kd (EphB4) [nM] | Kd (EphA2) [nM]
B1 | 0.535 | 
B2 |  | 25
